Measurements as given in US20100305307A1 (published 2010).
Each block holds one molecule with its values, some of them ahead of it.

Tests used:
[1] = biological target: human EGF-r expressed on the surface of human carcinoma cells (A431, SW948) (human) (UniProt P00533); experiment: cell-based or functional assay
[2] = biological target: soluble EGF-r purified from A431 cell membranes (Sigma, E-3641) (human, UniProt P00533 25-1210, limits assumed); experiment: BIAcore, solid phase, antigen immobilized on the sensor surface
Method: Determination of affinity constants of fully human Mabs by BIAcore: Affinity measurement of purified human monoclonal antibodies, Fab fragments, or hybridoma supernatants by plasmon resonance was carried out using the BIAcore 2000 instrument, using general procedures outlined by the manufacturers.
Based upon the general procedures outlined by the manufacture, kinetic analyses of the antibodies were performed using antigens immobilized onto the sensor surface at a low density. […] The dissociation (kd or koff) and association (ka or kₒₙ) rates were determined using the software provided by the manufacturer (BIA evaluation 2.1).

- IC50, inhibition of A431 cell proliferation in vitro [1]: 0.66 nM
Molecule: murine monoclonal antibody 528

- Kd [2]: 0.076 nM
B1: antibody secreted by the hybridoma E1.1 (antibody, V domains shown)
VH: VSGGSINSGDYYWSWIRQHPGKGLDCIGYIYYSGSTYYNPSLKSRVTISVDTSKNQFFLKLTSVTAADTAVYYCARSTVVNPGWFDPWGQGTLVTVSS
VL: TITCQASQDINNYLNWFQQKPGKAPKVLIHDASNLETGGPSRFSGSGSGTDFTFTISGLQPEDIATYYCQQYESLPLTFGGGTKVEIKR
notes: Fully human IgG2 heavy chain with human kappa light chain; they were cloned by PCR between V-region and constant-region primers, so they are probably not full chains
